Source: patent US6084068, “Elongin A and C functional domains” (Oklahoma Medical Research Foundation, dated 2000)
Residue numbers refer to the chain shown, from its start.

B1: wild type C. elegans Elongin A (other)
chain: MPETDEEKVRRYTECLMNGIDPKRALKRLYDLNVSPEVFKSADTVQCVKRYESSPELAKYAKRVRDKLLGGRKREKGGGEDDADIEHTALKKAKKEEVNLDEEFAEAMKSGVSAQASSAPRATVDYSKYKVVKRVEVKVEPKPEPVDVHEQQASSSSMSYQREHQKDYAPVVPTCKPSGQPKKAIPQSKSLHADENMFKPRKERQKVFAGRRKRVGEGVSTLVSLCQTVLMSHIDMIDHVGIVPFDLLKPVLDHASTDQLRHILDVNPMLVEDADEMFHEMVSREFPKYANREKSGWTWREMYDRLVEKKQKKENDKLEMLTSRIGKSNSAQSQGRQTMVIDMAHTRVRSKSFFNTVKDSQVKMSATPSALQLSQARKNVKIEGKAQLRTITPRGGGVPSTSRSRSNNNNNMNNGLVVKKTAPLMAKCKKMLKR
B2: C. elegans Elongin A mutant C.e.EloA(202-434) (other)
chain: KERQKVFAGRRKRVGEGVSTLVSLCQTVLMSHIDMIDHVGIVPFDLLKPVLDHASTDQLRHILDVNPMLVEDADEMFHEMVSREFPKYANREKSGWTWREMYDRLVEKKQKKENDKLEMLTSRIGKSNSAQSQGRQTMVIDMAHTRVRSKSFFNTVKDSQVKMSATPSALQLSQARKNVKIEGKAQLRTITPRGGGVPSTSRSRSNNNNNMNNGLVVKKTAPLMAKCKKMLKR
B3: Elongin C deletion mutant C(1-97) (other)
chain: MDGEEKTYGGCEGPDAMYVKLISSDGHEFIVKREHALTSGTIKAMLSGPGQFAENETNEVNFREIPSHVLSKVCMYFTYKVRYTNSSTEIPEFPIAP
B4: Elongin C deletion mutant C(1-83) (other)
chain: MDGEEKTYGGCEGPDAMYVKLISSDGHEFIVKREHALTSGTIKAMLSGPGQFAENETNEVNFREIPSHVLSKVCMYFTYKVRY
B5: Elongin C deletion mutant C(15-112) (other)
chain: DAMYVKLISSDGHEFIVKREHALTSGTIKAMLSGPGQFAENETNEVNFREIPSHVLSKVCMYFTYKVRYTNSSTEIPEFPIAPEIALELLMAANFLDC
B6: Elongin C deletion mutant C(19-112) (other)
chain: VKLISSDGHEFIVKREHALTSGTIKAMLSGPGQFAENETNEVNFREIPSHVLSKVCMYFTYKVRYTNSSTEIPEFPIAPEIALELLMAANFLDC
B7: Elongin C internal deletion mutant C(Δ31-40) (other)
chain: MDGEEKTYGGCEGPDAMYVKLISSDGHEFITIKAMLSGPGQFAENETNEVNFREIPSHVLSKVCMYFTYKVRYTNSSTEIPEFPIAPEIALELLMAANFLDC
B8: Elongin C internal deletion mutant C(Δ41-50) (other)
chain: B7 chain with T31V, I32K, K33R, A34E, M35H, L36A, S37L, G38T, P39S
B9: Elongin C internal deletion mutant C(Δ51-60) (other)
chain: MDGEEKTYGGCEGPDAMYVKLISSDGHEFIVKREHALTSGTIKAMLSGPGNFREIPSHVLSKVCMYFTYKVRYTNSSTEIPEFPIAPEIALELLMAANFLDC
B10: Elongin C internal deletion mutant C(Δ61-70) (other)
chain: B9 chain with N51Q, R53A, I55N, P56E, S57T, H58N, V59E, L60V
B11: Elongin C internal deletion mutant C(Δ71-80) (other)
chain: MDGEEKTYGGCEGPDAMYVKLISSDGHEFIVKREHALTSGTIKAMLSGPGQFAENETNEVNFREIPSHVLVRYTNSSTEIPEFPIAPEIALELLMAANFLDC
B12: Elongin C internal deletion mutant C(Δ81-90) (other)
chain: B11 chain with V71S, R72K, Y73V, T74C, N75M, S76Y, S77F, E79Y, I80K
B13: Elongin C internal deletion mutant C(Δ91-100) (other)
chain: MDGEEKTYGGCEGPDAMYVKLISSDGHEFIVKREHALTSGTIKAMLSGPGQFAENETNEVNFREIPSHVLSKVCMYFTYKVRYTNSSTEILELLMAANFLDC
B14: Elongin C alanine scanning mutant C(Ala19-21) (other)
chain: MDGEEKTYGGCEGPDAMYAAAISSDGHEFIVKREHALTSGTIKAMLSGPGQFAENETNEVNFREIPSHVLSKVCMYFTYKVRYTNSSTEIPEFPIAPEIALELLMAANFLDC
B15: Elongin C alanine scanning mutant C(Ala22-24) (other)
chain: B14 chain with A19V, A20K, A21L, I22A, S23A, S24A
B16: Elongin C deletion mutant C(23-112) (other)
chain: SSDGHEFIVKREHALTSGTIKAMLSGPGQFAENETNEVNFREIPSHVLSKVCMYFTYKVRYTNSSTEIPEFPIAPEIALELLMAANFLDC
B17: Elongin C internal deletion mutant C(Δ21-30) (other)
chain: B7 chain with L21V, I22K, S23R, S24E, D25H, G26A, H27L, E28T, F29S, I30G
B18: Elongin C alanine scanning mutant C(Ala25-27) (other)
chain: B14 chain with A19V, A20K, A21L, D25A, G26A, H27A
B19: Elongin C alanine scanning mutant C(Ala28-30) (other)
chain: B14 chain with A19V, A20K, A21L, E28A, F29A, I30A

Biological target: T1, Elongin BC complex (wild type rat Elongin B and C) (rat, UniProt P62870)
T1 chain 1: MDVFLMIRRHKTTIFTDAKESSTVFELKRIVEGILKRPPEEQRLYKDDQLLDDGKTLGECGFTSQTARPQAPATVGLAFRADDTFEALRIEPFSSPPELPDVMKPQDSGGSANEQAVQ
T1 chain 2: B14 chain with A19V, A20K, A21L
Assay: refolded with rat Elongin B and C; TSK SP-NPR HPLC, SDS-PAGE, silver staining
Procedure: Figure 8A: FIG. 8A. Analysis of wild type and mutant C. elegans Elongin A wherein wild type or mutant C. elegans Elongin A was refolded with rat Elongin B and C and subjected to TSK SP-NPR HPLC as described. Aliquots of the peak column fractions were analyzed by SDS-PAGE, and proteins were visualized by silver staining. WT C.e. […] Figure 8B: FIG. 8B. ~2 pmol of human or C. elegans Elongin A proteins were refolded as described (Bradsher, et al., *J Biol Chem* 268: 25587–25593 (1993)) in the presence or absence of ~2 pmol of rat Elongin B and C. Aliquots of refolded protein were assayed for transcriptional activity in oligo dc-tailed template assays performed as described. Reaction mixtures contained no Elongin (lane 1); 3 and 9 μl of renatured human Elongin A without (lanes 2 and 3) or with (lanes 4 and 5) Elongin B and C; 3 and 9 μl of renatured wild type C. elegans Elongin A without (lanes 6 and 7) or with (lanes 8 and 9) Elongin B and C; 3 and 9 μl of renatured C.e. EloA(94–434) (SEQ ID NO:44) without (lanes 10 and 11) or with (lanes 12 and 13) Elongin B and C; 3 and 9 μl of renatured C.e. EloA (202–434) (SEQ ID NO:45) with (lanes 14 and 15) or without (lanes 16, and 17) Elongin B and C.

Q: Does B1 bind?
A: binds

Q: Does B2 bind?
A: binds

biological target: wild type Elongin B (rat, UniProt P62870); assay: refolded with wild type Elongin B; TSK DEAE-NPR HPLC, SDS-PAGE, silver staining
Procedure: Figure 10A: FIG. 10A. […] Aliquots of the indicated column fractions were analyzed by SDS-PAGE, and proteins were visualized by silver staining. Figure 10B: FIG. 10B. N-terminal, C-terminal, and internal Elongin C deletion mutants were assayed for their abilities to form Elongin BC complexes as described.
~6 µg of Elongin B was mixed with ~6 µg of either wild type or mutant Elongin C and diluted 5-fold with 40 mM Hepes-NaOH (pH 7.9), 100 mM KCl, 2 mM DTT, 50 µM ZnSO_4, 0.1 mM EDTA, and 10% (v/v) glycerol. After incubation for 90 min on ice, the mixtures were dialyzed at 4° C. overnight against 40 mM Tris-HCl (pH 7.9), 0.1 mM EDTA, 10% (v/v) glycerol, and 40 mM KCl. Following dialysis, the mixtures were centrifuged at 60,000×g for 15 min at 4° C. The resulting supernatants were applied to TSK DEAE-NPR columns (35 mm×4.6 mm, Toso-Haas) pre-equilibrated in 40 mM Tris-HCl (pH 7.9), 0.1 mM EDTA, 1 mM DTT, 10% (v/v) glycerol, and 40 mM KCl and fractionated using a SMART microchromatography system (Pharmacia) at 8° C. The columns were eluted at 0.3 ml/min with a 3 ml linear gradient from 0.04 to 0.5M KCl in 40 mM Tris-HCl (pH 7.9), 0.1 mM EDTA, 1 mM DTT, and 10% (v/v) glycerol. Aliquots of each column fraction were analyzed by 10% Tris-Tricine SDS-polyacrylamide gel electrophoresis, and the proteins were visualized by silver staining.

Q: Does B3 bind?
A: binds

Q: Does B4 bind?
A: binds

Q: Does B5 bind?
A: binds

Q: Does B6 bind?
A: binds

Q: Does B7 bind?
A: binds

Q: Does B8 bind?
A: binds

Q: Does B9 bind?
A: binds

Q: Does B10 bind?
A: binds

Q: Does B11 bind?
A: binds

Q: Does B12 bind?
A: binds

Q: Does B13 bind?
A: binds

Q: Does B14 bind?
A: binds

Q: Does B15 bind?
A: binds

Q: Does B16 bind?
A: no binding

Q: Does B17 bind?
A: no binding

Q: Does B18 bind?
A: no binding

Q: Does B19 bind?
A: no binding

Biological target: T2, wild type Elongin A (rat)
T2 chain: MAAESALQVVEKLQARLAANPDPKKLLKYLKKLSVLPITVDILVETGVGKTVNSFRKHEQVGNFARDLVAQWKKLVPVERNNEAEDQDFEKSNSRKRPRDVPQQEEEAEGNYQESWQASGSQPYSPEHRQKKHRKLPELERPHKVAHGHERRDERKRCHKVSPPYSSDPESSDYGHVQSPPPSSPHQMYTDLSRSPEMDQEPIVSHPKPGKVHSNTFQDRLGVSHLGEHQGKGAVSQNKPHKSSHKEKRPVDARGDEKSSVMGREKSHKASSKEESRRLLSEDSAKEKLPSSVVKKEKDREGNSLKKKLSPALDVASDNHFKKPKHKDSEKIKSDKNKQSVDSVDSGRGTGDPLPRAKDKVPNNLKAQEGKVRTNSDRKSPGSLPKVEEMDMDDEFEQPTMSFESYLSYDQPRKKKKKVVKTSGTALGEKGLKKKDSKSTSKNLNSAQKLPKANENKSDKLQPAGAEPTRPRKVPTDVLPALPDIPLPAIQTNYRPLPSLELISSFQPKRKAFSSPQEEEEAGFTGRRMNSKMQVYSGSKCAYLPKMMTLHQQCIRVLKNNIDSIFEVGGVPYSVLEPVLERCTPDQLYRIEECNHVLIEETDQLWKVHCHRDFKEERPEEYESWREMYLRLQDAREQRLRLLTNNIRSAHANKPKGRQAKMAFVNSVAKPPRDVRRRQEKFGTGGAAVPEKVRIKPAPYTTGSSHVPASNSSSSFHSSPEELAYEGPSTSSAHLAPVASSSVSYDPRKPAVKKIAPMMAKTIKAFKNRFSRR
Assay: refolded with wild type Elongin A and B; TSK SP-NPR HPLC, SDS-PAGE, silver staining

Q: Does B17 bind?
A: no binding
